Test results from article PMC5503513, “Tandem hnRNP A1 RNA recognition motifs act in concert to repress the splicing of survival motor neuron exon 7”.

Tests used:
[1] = target: UP1 r1R2 (UniProt P09651 1-196, F17A;F59A); experiment: ITC; ITC: 10 mM NaPi pH 6.5, 10 mM 2-mercaptoethanol, 30 C, protein titrated into RNA; NMR: 10 mM NaPi pH 6.5, 1 mM DTT (303 K stated for UP1-R140A:ISS-N1-u25g); conditions: protein: recombinant; single strand
[2] = target: hnRNP A1 RRM2 E176Q (UniProt P09651 95-196, E176Q); experiment: as above; conditions: protein: recombinant; single strand
[3] = target: hnRNP A1 RRM2 Y167F (UniProt P09651 95-196, Y167F); experiment: as above; conditions: protein: recombinant; single strand
[4] = target: T1, hnRNP A1 RRM2 (UniProt P09651 95-196); experiment: as above; conditions: protein: recombinant; single strand
[5] = target: T2, hnRNP A1 RRM2 R140A (UniProt P09651 95-196, R140A); experiment: ITC; range, no saturation; ITC: 10 mM NaPi pH 6.5, 10 mM 2-mercaptoethanol, 30 C, protein titrated into RNA; NMR: 10 mM NaPi pH 6.5, 1 mM DTT (303 K stated for UP1-R140A:ISS-N1-u25g); conditions: protein: recombinant; single strand
[6] = target: hnRNP A1 UP1 R1r2 (Homo sapiens, UniProt P09651 2-196, F108A;F150A); experiment: ITC; 10 mM sodium phosphate pH 6.5, 10 mM 2-mercaptoethanol, no added salt, 30 C; RNA 5-10 uM in the cell; 1:1 fit; conditions: extra N-terminal Gly-Gly in PDB 2LYV (left out)
[7] = target: T3, hnRNP A1 RRM1 (UniProt P09651 2-97); experiment: as above; conditions: one extra N-terminal Ala in PDB 5MPG (left out)
[8] = target: hnRNP A1 RRM2 M186A (UniProt P09651 95-196, M186A); experiment: as above; conditions: none in PDB 5MPL
[9] = target: hnRNP A1 UP1 r1R2 (Homo sapiens, UniProt P09651 2-196, F17A;F59A); experiment: as above; conditions: extra N-terminal Gly-Gly in PDB 2LYV (left out)
[10] = target: T2, hnRNP A1 RRM2 R140A; experiment: as above; conditions: none in PDB 5MPL
[11] = target: T1, hnRNP A1 RRM2; experiment: NMR titration; fast exchange; ITC: 10 mM NaPi pH 6.5, 10 mM 2-mercaptoethanol, 30 C, protein titrated into RNA; NMR: 10 mM NaPi pH 6.5, 1 mM DTT (303 K stated for UP1-R140A:ISS-N1-u25g); conditions: protein: recombinant; single strand
[12] = target: T3, hnRNP A1 RRM1; experiment: as above; conditions: protein: recombinant; single strand
[13] = target: T4, UP1 (UniProt P09651 1-196); experiment: NMR PRE; 1:1 complex; ITC: 10 mM NaPi pH 6.5, 10 mM 2-mercaptoethanol, 30 C, protein titrated into RNA; NMR: 10 mM NaPi pH 6.5, 1 mM DTT (303 K stated for UP1-R140A:ISS-N1-u25g); conditions: protein: recombinant; label: IA-proxyl spin label on s4U18; single strand
[14] = target: T5, UP1 R140A (UniProt P09651 1-196, R140A); experiment: as above; conditions: protein: recombinant; label: IA-proxyl spin label on s4U18; single strand
[15] = target: T3, hnRNP A1 RRM1; experiment: ITC; range, no saturation; ITC: 10 mM NaPi pH 6.5, 10 mM 2-mercaptoethanol, 30 C, protein titrated into RNA; NMR: 10 mM NaPi pH 6.5, 1 mM DTT (303 K stated for UP1-R140A:ISS-N1-u25g); conditions: protein: recombinant; single strand
[16] = target: T5, UP1 R140A; experiment: NMR (intermolecular NOEs, structural model); 1:1 complex; RRM2 on 5' motif, RRM1 on 3' motif; ITC: 10 mM NaPi pH 6.5, 10 mM 2-mercaptoethanol, 30 C, protein titrated into RNA; NMR: 10 mM NaPi pH 6.5, 1 mM DTT (303 K stated for UP1-R140A:ISS-N1-u25g); conditions: protein: recombinant; single strand
[17] = target: T3, hnRNP A1 RRM1; experiment: ITC; ITC: 10 mM NaPi pH 6.5, 10 mM 2-mercaptoethanol, 30 C, protein titrated into RNA; NMR: 10 mM NaPi pH 6.5, 1 mM DTT (303 K stated for UP1-R140A:ISS-N1-u25g); conditions: protein: recombinant; single strand
[18] = target: hnRNP A1 RRM1 F23A (UniProt P09651 2-97, F23A); experiment: as above; conditions: protein: recombinant; single strand
[19] = target: T5, UP1 R140A; experiment: NMR titration; 1 equivalent RNA; ITC: 10 mM NaPi pH 6.5, 10 mM 2-mercaptoethanol, 30 C, protein titrated into RNA; NMR: 10 mM NaPi pH 6.5, 1 mM DTT (303 K stated for UP1-R140A:ISS-N1-u25g); conditions: protein: recombinant; single strand
[20] = target: T2, hnRNP A1 RRM2 R140A; experiment: ITC; ITC: 10 mM NaPi pH 6.5, 10 mM 2-mercaptoethanol, 30 C, protein titrated into RNA; NMR: 10 mM NaPi pH 6.5, 1 mM DTT (303 K stated for UP1-R140A:ISS-N1-u25g); conditions: protein: recombinant; single strand
[21] = target: T4, UP1; experiment: NMR titration; intermediate exchange, both RRMs; ITC: 10 mM NaPi pH 6.5, 10 mM 2-mercaptoethanol, 30 C, protein titrated into RNA; NMR: 10 mM NaPi pH 6.5, 1 mM DTT (303 K stated for UP1-R140A:ISS-N1-u25g); conditions: protein: recombinant; single strand
[22] = target: T4, UP1; experiment: NMR titration; broad lines; ITC: 10 mM NaPi pH 6.5, 10 mM 2-mercaptoethanol, 30 C, protein titrated into RNA; NMR: 10 mM NaPi pH 6.5, 1 mM DTT (303 K stated for UP1-R140A:ISS-N1-u25g); conditions: protein: recombinant; single strand
[23] = target: T3, hnRNP A1 RRM1; experiment: NMR titration; intermediate exchange; ITC: 10 mM NaPi pH 6.5, 10 mM 2-mercaptoethanol, 30 C, protein titrated into RNA; NMR: 10 mM NaPi pH 6.5, 1 mM DTT (303 K stated for UP1-R140A:ISS-N1-u25g); conditions: protein: recombinant; single strand

hnRNP A1 RRM2 E176Q, sequence (P09651 95-196 E176Q): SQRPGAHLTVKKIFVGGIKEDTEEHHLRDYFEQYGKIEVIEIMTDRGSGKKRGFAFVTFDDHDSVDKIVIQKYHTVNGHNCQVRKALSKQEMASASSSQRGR
UP1 r1R2, sequence (P09651 1-196 F17A/F59A): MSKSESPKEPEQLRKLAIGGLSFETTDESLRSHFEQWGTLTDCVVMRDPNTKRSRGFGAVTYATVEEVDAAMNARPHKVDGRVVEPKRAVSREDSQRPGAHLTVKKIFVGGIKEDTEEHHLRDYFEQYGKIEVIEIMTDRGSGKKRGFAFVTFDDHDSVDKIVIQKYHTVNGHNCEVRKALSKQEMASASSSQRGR
T3 sequence (P09651 2-97): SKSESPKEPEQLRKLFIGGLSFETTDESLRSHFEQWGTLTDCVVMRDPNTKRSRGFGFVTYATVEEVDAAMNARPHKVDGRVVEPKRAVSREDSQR
hnRNP A1 UP1 R1r2, sequence (P09651 2-196 F108A/F150A): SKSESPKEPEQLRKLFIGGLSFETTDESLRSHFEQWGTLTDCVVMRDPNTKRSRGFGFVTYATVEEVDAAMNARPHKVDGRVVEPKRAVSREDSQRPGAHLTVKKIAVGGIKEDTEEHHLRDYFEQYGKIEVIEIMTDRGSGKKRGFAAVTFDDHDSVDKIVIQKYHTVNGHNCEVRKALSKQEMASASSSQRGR
T4 sequence (P09651 1-196): as the sequence (P09651 1-196 F17A/F59A) above, with A17F, A59F counted along it
T2 sequence (P09651 95-196 R140A): as the sequence (P09651 95-196 E176Q) above, with R46A, Q82E counted along it
hnRNP A1 UP1 r1R2, sequence (P09651 2-196 F17A/F59A): as the sequence (P09651 2-196 F108A/F150A) above, with F16A, F58A, A107F, A149F counted along it
T1 sequence (P09651 95-196): as the sequence (P09651 95-196 E176Q) above, with Q82E counted along it
T5 sequence (P09651 1-196 R140A): as the sequence (P09651 1-196 F17A/F59A) above, with A17F, A59F, R140A counted along it
hnRNP A1 RRM1 F23A, sequence (P09651 2-97 F23A): as the sequence (P09651 2-97) above, with F22A counted along it
hnRNP A1 RRM2 Y167F, sequence (P09651 95-196 Y167F): as the sequence (P09651 95-196 E176Q) above, with Y73F, Q82E counted along it
hnRNP A1 RRM2 M186A, sequence (P09651 95-196 M186A): as the sequence (P09651 95-196 E176Q) above, with Q82E, M92A counted along it

UCAGUU (ssRNA)
Kd [1]: 637 ± 39 nM | Kd [2]: 237 ± 15 nM | Kd [3]: 513 ± 30 nM | Kd [4]: 541 ± 33 nM | Kd [5]: ~2240 nM | Kd [6]: 578 ± 40 nM | Kd [7]: > 10000 nM | Kd [8]: 1630 nM | Kd [9]: 637 ± 39 nM | Kd [10]: ~2490 nM

UCAGGG (ssRNA)
binding result [11]: binds

UGAAAGU (ssRNA)
binding result [12]: binds | binding result [11]: binds

ACCAGCAUUAUGAAAGGUA (XNA, 4-thio-U at position 18) [modified ISS-N1 (spin-labeled)]
binding result [13]: binds | binding result [14]: binds

UGAGUU (ssRNA)
Kd [1]: 625 ± 41 nM | Kd [2]: 324 ± 20 nM | Kd [4]: 546 ± 31 nM | Kd [15]: ~5200 nM | Kd [5]: ~2240 nM | Kd [6]: 654 ± 50 nM | Kd [7]: ~3450 nM | Kd [9]: 625 ± 41 nM | Kd [10]: ~2650 nM

GGACCAGCAUUAUGAAAGGGA (ssRNA) [ISS-N1-u25g]
binding result [16]: binds

UUUUAGGUC (ssRNA)
Kd [17]: 159 ± 9 nM | Kd [18]: 130 ± 8 nM

GGACCAGGAUUAUGAAAGUGC (ssRNA) [ISS-N1-c14g]
binding result [19]: binds

UCAGGUC (ssRNA)
Kd [17]: 543 ± 33 nM | Kd [1]: 178 ± 11 nM | Kd [2]: 132 ± 29 nM | Kd [4]: 129 ± 11 nM | Kd [20]: 862 ± 47 nM | Kd [6]: 171 ± 12 nM | Kd [9]: 178 ± 11 nM | Kd [10]: 862 ± 47 nM

UAAGUU (ssRNA)
Kd [1]: 685 ± 42 nM | Kd [2]: 429 ± 27 nM | Kd [4]: 543 ± 31 nM | Kd [15]: ~5200 nM | Kd [5]: ~2240 nM | Kd [6]: 658 ± 44 nM | Kd [7]: ~4610 nM | Kd [9]: 685 ± 42 nM | Kd [10]: ~3300 nM

GGACCAGCAUUAUGAAAGUGA (ssRNA) [ISS-N1 WT]
binding result [21]: binds | binding result [19]: binds

GGACCAGGAUUAUGAAAGGGC (ssRNA) [ISS-N1-14g25g]
binding result [22]: binds | binding result [19]: binds

UUUUAGGU (ssRNA)
binding result [23]: binds

CAGCAU (ssRNA)
binding result [12]: binds | binding result [11]: binds

CGUAGGU (ssRNA)
binding result [23]: binds

UAGGUC (ssRNA)
Kd [17]: 625 ± 35 nM | Kd [18]: 602 ± 34 nM | Kd [2]: 227 ± 14 nM | Kd [4]: 98 ± 8 nM | Kd [20]: 685 ± 40 nM | Kd [10]: 685 ± 40 nM

UUAGGGA (ssRNA)
binding result [12]: binds | binding result [11]: binds
